Test results taken from patent US20260274993A1 (HUMMINGBIRD BIOSCIENCE PTE, published 2026).

What was measured:
[1] = biological target: T1, 3A6; assay: flow cytometry, EC50 of % parent (FITC), CHO cells overexpressing surface 3A6
T1 construct: also called 3A6 antibody (containing VH4-34 antigen); 3A6 (VH4-34 antigen)
Procedure: (§1) For FACS evaluation, cells were assayed in PBS with 0.5% BSA and 2 mM EDTA. […] Cells were incubated with a secondary anti-mouse FITC antibody for 20 mins at 4° C. FITC readout was measured by FACS.

[2] = biological target: T2, Zanolimumab mutant FR1; assay: flow cytometry, % parent (FITC), CHO cells expressing zanolimumab mutant FR1
T2 construct: also called Zano FR1
Procedure: as §1

[3] = biological target: T3, 3A6 mutant FR1; assay: flow cytometry, % parent (FITC), CHO cells expressing 3A6 mutant FR1
T3 construct: also called 3A6 FR1; 3A6-FR1 (VH4-34 FR1 mutant)
T3 sequence (VH, as listed by the source, chain 1 of 2): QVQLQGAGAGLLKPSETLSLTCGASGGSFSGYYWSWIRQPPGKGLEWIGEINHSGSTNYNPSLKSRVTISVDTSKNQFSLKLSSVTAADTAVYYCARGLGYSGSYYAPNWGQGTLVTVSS
T3 sequence (VL, as listed by the source, chain 2 of 2): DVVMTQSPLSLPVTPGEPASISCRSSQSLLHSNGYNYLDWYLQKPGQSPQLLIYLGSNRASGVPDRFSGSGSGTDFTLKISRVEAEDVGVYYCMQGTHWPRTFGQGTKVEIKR
Procedure: as §1

[4] = biological target: tabalumab; assay: flow cytometry, EC50 of % parent (FITC), CHO cells overexpressing surface tabalumab (Taba)
Sequence of tabalumab (VH, as listed by the source, chain 1 of 2): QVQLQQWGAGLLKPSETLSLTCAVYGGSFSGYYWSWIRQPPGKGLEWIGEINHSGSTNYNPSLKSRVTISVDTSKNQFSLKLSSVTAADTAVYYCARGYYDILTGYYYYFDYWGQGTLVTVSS
Sequence of tabalumab (VL, as listed by the source, chain 2 of 2): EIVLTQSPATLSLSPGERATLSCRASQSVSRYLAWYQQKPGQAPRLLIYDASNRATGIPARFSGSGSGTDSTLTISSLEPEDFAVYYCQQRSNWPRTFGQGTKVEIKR
Procedure: as §1

[5] = biological target: T4, Tabalumab mutant FR1; assay: flow cytometry, % parent (FITC), CHO cells expressing tabalumab mutant FR1
T4 construct: also called Taba FR1
T4 sequence (VH, as listed by the source, chain 1 of 2): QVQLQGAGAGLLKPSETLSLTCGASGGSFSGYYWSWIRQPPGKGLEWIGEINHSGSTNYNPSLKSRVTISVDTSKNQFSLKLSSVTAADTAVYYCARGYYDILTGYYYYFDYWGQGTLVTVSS
Procedure: as §1

[6] = biological target: T5, zanolimumab; assay: flow cytometry, EC50 of % parent (FITC), CHO cells overexpressing surface zanolimumab (Zano)
T5 construct: VH4-34-containing antibody used as the antigen, overexpressed on the surface of CHO cells; also called Zano.hIgG1
T5 sequence (VH, as listed by the source, chain 1 of 2): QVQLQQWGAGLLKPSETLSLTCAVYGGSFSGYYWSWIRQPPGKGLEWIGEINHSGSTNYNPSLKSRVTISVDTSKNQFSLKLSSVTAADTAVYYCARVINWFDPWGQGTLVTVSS
T5 sequence (VL, as listed by the source, chain 2 of 2): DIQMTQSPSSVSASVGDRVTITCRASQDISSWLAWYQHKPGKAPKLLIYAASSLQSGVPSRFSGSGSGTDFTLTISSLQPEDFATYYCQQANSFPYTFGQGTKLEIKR
Procedure: as §1

[7] = biological target: T5, zanolimumab; assay: flow cytometry (geomean MFI), CHO cells overexpressing the surface antibody
[8] = biological target: T1, 3A6; assay: as above
[9] = biological target: tabalumab; assay: as above
[10] = biological target: T6, antibodies containing VH4-34 endogenously expressed by cell line OCI-Ly3; assay: flow cytometry, EC50 of MFI, OCI-Ly3 cells endogenously expressing VH4-34
T6 construct: Whole, on cells; also called VH4-34-expressing cell line OCI-Ly3
Procedure: (§2) Binding was assessed by FACS. Briefly, cells were assayed in PBS with 0.5% BSA and 2 mM EDTA. Live dead staining was performed with a live dead cell dye for 15 minutes at 4° C. […] Following this, cells were incubated with a secondary PE goat anti-mouse IgG (1:300) for 30 mins at 4° C. and PE readout was measured.

[11] = biological target: T6, antibodies containing VH4-34 …; assay: flow cytometry, EC50 of % parent, OCI-Ly3 cells endogenously expressing VH4-34
Procedure: as §2

[12] = biological target: T1, 3A6; assay: ELISA, human IgG1 antigen captured on anti-human IgG Fc;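 further: humanized antibodies bound to human IgG1 antigen captured at 1 µg/ml on anti-human IgG Fc plates, detected with anti-mouse IgG Fc/HRP, VSTB112 serving as negative control protein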
Procedure: (§3) The binding affinity of each humanized antibody for 3A6 antibody (containing VH4-34 antigen), 3A6-FR1 (VH4-34 FR1 mutant) and VSTB112 (negative control protein) was evaluated.
(§4) Plates were coated with 1 ug/ml of anti-human IgG Fc overnight at 4° C. Plates were washed thrice with PBS/0.05% Tween (PBST) before blocking with 5% BSA for 1 h at room temp (RT). Plates were then washed again before addition of 1 μg/ml of 3A6 (VH4-34 antigen), 3A6-FR1 (VH4-34 FR1 mutant) or VSTB112 (negative control protein) human IgG1 proteins. Plates were washed thrice. […] After washing the plates, anti-mouse IgG Fc/HRP diluted 1:5000 in 1% BSA was added and incubated for 1 h at RT. Plates were washed before detection using 1-step ELISA substrate.

[13] = biological target: T3, 3A6 mutant FR1; assay: as above
Procedure: as §3, §4

T1 sequence (VH, as listed by the source, chain 1 of 2): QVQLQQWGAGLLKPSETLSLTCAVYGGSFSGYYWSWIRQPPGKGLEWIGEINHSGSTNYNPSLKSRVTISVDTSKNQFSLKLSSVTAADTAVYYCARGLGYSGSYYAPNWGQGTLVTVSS
T2 sequence (VH, as listed by the source, chain 1 of 2): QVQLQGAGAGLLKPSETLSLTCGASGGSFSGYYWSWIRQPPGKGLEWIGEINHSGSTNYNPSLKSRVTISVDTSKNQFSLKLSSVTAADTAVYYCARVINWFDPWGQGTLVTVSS

| Binder | EC50 [1] [pM] | binding result [2] | binding result [3] | EC50 [4] [pM] | binding result [5] | EC50 [6] [pM] | EC50 [7] [nM] | EC50 [8] [nM] | EC50 [9] [nM] | EC50 [10] [nM] | EC50 [11] [pM] | EC50 [12] [nM] | binding result [13] |
| --- | --- | --- | --- | --- | --- | --- | --- | --- | --- | --- | --- | --- | --- |
| D011-7016-LD1.IgG2a (antibody, V domains shown) VH: EVQLVESGPSLVKPSQTLSLICSVTGDAITSGYWNWVRKFPGNKLEYMGYISYSGSAHYNPSLKSRISITRDTSKNQYYLQLNSMTTEDTATYYCASYSFAYWGQGTLVTVSA VL: DIVMTQSPATLSVTPGDSVSLSCRAQQSIDNQLHWYQQRSHESPRLLINYASQSISGIPSRFSGSGSGTDFTLSISSVETEDFGMYFCQQSYGWPYTFGGGTKLEIKR | 10.4 | no binding (tested: Log M about -8.1 (about 8e-9 M)) | no binding (tested: Log M about -8.1 (about 8e-9 M)) | 8.63 | no binding (tested: Log M about -8.1 (about 8e-9 M)) | 10.5 |  |  |  |  |  |  |  |
| D011-7016-LD2.IgG2a (antibody, V domains shown, also called [8]) VH: EVQLVESGPSLVKPSQTLSLICSVTGDAITSGYWNWVRKFPGNKLEYMGYISYSGSAHYNPSLKSRISITRDTSKNQYYLQLNSMTTEDTATYYCASYSFAYWGQGTLVTVSA VL: DIVMTQSPATLSVTPGDSVSLSCRASQSIDNQLHWYQQRSHESPRLLINYASQSISGIPSRFSGSGSGTDFTLSISSVETEDFGMYFCQQSYGWPYTFGGGTKLEIKR | 9.09 | no binding (tested: Log M about -8.1 (about 8e-9 M)) | no binding (tested: Log M about -8.1 (about 8e-9 M)) | 6.88 | no binding (tested: Log M about -8.1 (about 8e-9 M)) | 8.92 | 0.692 | 0.519 | 0.28 | 0.243 | 4.77 | 0.0254 |  |
| D011-7016-LD2 H0/L0 IgG2a (antibody, V domains shown) VH: QVQLQESGPGLVKPSETLSLTCTVSGDAITSGYWNWIRQPPGKGLEYMGYISYSGSAHYNPSLKSRITISRDTSKNQYSLKLSSVTAADTAVYYCASYSFAYWGQGTLVTVSS VL: EIVMTQSPDFQSVTPKEKVTITCRASQSIDNQLHWYQQKPDQSPKLLINYASQSISGVPSRFSGSGSGTDFTLTISSLEAEDAATYYCQQSYGWPYTFGQGTKLEIKR |  |  |  |  |  |  | 0.453 | 0.605 | 0.376 | 0.271 | 3.84 | 0.0369 | no binding (tested: 1 µg/ml (highest concentration)) |
| D011-7016-LD2 H1/L4 IgG2a (antibody, V domains shown) VH: QVQLQESGPGLVKPSQTLSLTCTVSWDAITSGYWNWVRQHPGKGLEYMGYISYSGSAHYNPSLKSRITISRDTSKNQYSLKLSSVTAADTATYYCASYSFAYWGQGTLVTVSS VL: EIVLTQSPDFQSVTPKEKVTITCRASQSIDNQLHWYQQKPDQSPKLLIKYASQSISGVPSRFSGSGSGTDFTLTISSLEAEDAATYFCQQSYGWPYTFGGGTKLEIKR |  |  |  |  |  |  |  |  |  | 0.46 | 7.65 | 0.0234 | no binding (tested: 1 µg/ml (highest concentration)) |
| D011-7016-LD2 H5/L4 IgG2a (antibody, V domains shown) VH: QVQLQESGPGLVKPSQTLSLTCTVSWDAITSGYWNWVRQHPGNKLEYMGYISYSGSAHYNPSLKSRITISRDTSKNQYSLKLSSVTAADTAVYYCASYSFAYWGQGTLVTVSS VL: EIVLTQSPDFQSVTPKEKVTITCRASQSIDNQLHWYQQKPDQSPKLLIKYASQSISGVPSRFSGSGSGTDFTLTISSLEAEDAATYFCQQSYGWPYTFGGGTKLEIKR |  |  |  |  |  |  |  |  |  | 0.282 | 2.51 | 0.0495 | no binding (tested: 1 µg/ml (highest concentration)) |
| D011-7016-LD2 H5/L1 IgG2a (antibody, V domains shown) VH: QVQLQESGPGLVKPSQTLSLTCTVSWDAITSGYWNWVRQHPGNKLEYMGYISYSGSAHYNPSLKSRITISRDTSKNQYSLKLSSVTAADTAVYYCASYSFAYWGQGTLVTVSS VL: DIVMTQSPPSLSVTPGEPASLSCRASQSIDNQLHWYLQKPGQSPQLLINYASQSISGVTDRFSGSGSGTDFTLKISRVEAEDVGVYFCQQSYGWPYTFGGGTKVEIKR |  |  |  |  |  |  | 0.645 | 0.59 | 0.313 | 0.308 | 4.7 | 0.0295 | no binding (tested: 1 µg/ml (highest concentration)) |
| D011-7016-LD2 H3/L1 IgG2a (antibody, V domains shown) VH: QVQLQESGPGLVKPSETLSLTCSVSWDAITSGYWNWVRQPPGNKLEYMGYISYSGSAHYNPSLKSRITISRDTSKNQYSLTLTSMTAADTALYYCASYSFAYWGQGTLVTVSS VL: DIVMTQSPPSLSVTPGEPASLSCRASQSIDNQLHWYLQKPGQSPQLLINYASQSISGVTDRFSGSGSGTDFTLKISRVEAEDVGVYFCQQSYGWPYTFGGGTKVEIKR |  |  |  |  |  |  |  |  |  | 0.292 | 3.75 | 0.0398 | no binding (tested: 1 µg/ml (highest concentration)) |
| D011-7016-LD2 H4/L2 IgG2a (antibody, V domains shown) VH: QVQLQESGPGLVKPSETLSLTCTVSWDAITSGYWNWVRQPPGNKLEYMGYISYSGSAHYNPSLKSRITISRDTSKNQYSLKLSSVTAADTAVYYCASYSFAYWGQGTLVTVSS VL: DIVMTQSPPSLSVTPGESASISCRASQSIDNQLHWYLQKPGQSPQLLINYASQSISGVTDRFSGSGSGTDFTLKISRVEAEDVGMYFCQQSYGWPYTFGGGTKVEIKR |  |  |  |  |  |  |  |  |  | 0.33 | 4.28 | 0.0532 | no binding (tested: 1 µg/ml (highest concentration)) |
| D011-7016-LD2 H5/L2 IgG2a (antibody, V domains shown) VH: QVQLQESGPGLVKPSQTLSLTCTVSWDAITSGYWNWVRQHPGNKLEYMGYISYSGSAHYNPSLKSRITISRDTSKNQYSLKLSSVTAADTAVYYCASYSFAYWGQGTLVTVSS VL: DIVMTQSPPSLSVTPGESASISCRASQSIDNQLHWYLQKPGQSPQLLINYASQSISGVTDRFSGSGSGTDFTLKISRVEAEDVGMYFCQQSYGWPYTFGGGTKVEIKR |  |  |  |  |  |  | 0.65 | 0.59 | 0.284 | 0.281 | 4.38 | 0.0432 | no binding (tested: 1 µg/ml (highest concentration)) |
| D011-7016-LD2 H1/L3 IgG2a (antibody, V domains shown) VH: QVQLQESGPGLVKPSQTLSLTCTVSWDAITSGYWNWVRQHPGKGLEYMGYISYSGSAHYNPSLKSRITISRDTSKNQYSLKLSSVTAADTATYYCASYSFAYWGQGTLVTVSS VL: DIQMTQSPSSLSASVGDRVTITCRASQSIDNQLHWYQQKPGKSPNLLINYASQSISGVPSRFSGSGSGTDFTLTISSLQPEDFATYFCQQSYGWPYTFGGGTKVEIKR |  |  |  |  |  |  |  |  |  |  |  | 0.0469 | no binding (tested: 1 µg/ml (highest concentration)) |
| D011-7016-LD2 H3/L3 IgG2a (antibody, V domains shown) VH: QVQLQESGPGLVKPSETLSLTCSVSWDAITSGYWNWVRQPPGNKLEYMGYISYSGSAHYNPSLKSRITISRDTSKNQYSLTLTSMTAADTALYYCASYSFAYWGQGTLVTVSS VL: DIQMTQSPSSLSASVGDRVTITCRASQSIDNQLHWYQQKPGKSPNLLINYASQSISGVPSRFSGSGSGTDFTLTISSLQPEDFATYFCQQSYGWPYTFGGGTKVEIKR |  |  |  |  |  |  |  |  |  |  |  | 0.169 | no binding (tested: 1 µg/ml (highest concentration)) |
| D011-7016-LD2 H4/L3 IgG2a (antibody, V domains shown) VH: QVQLQESGPGLVKPSETLSLTCTVSWDAITSGYWNWVRQPPGNKLEYMGYISYSGSAHYNPSLKSRITISRDTSKNQYSLKLSSVTAADTAVYYCASYSFAYWGQGTLVTVSS VL: DIQMTQSPSSLSASVGDRVTITCRASQSIDNQLHWYQQKPGKSPNLLINYASQSISGVPSRFSGSGSGTDFTLTISSLQPEDFATYFCQQSYGWPYTFGGGTKVEIKR |  |  |  |  |  |  |  |  |  |  |  | 0.011 | no binding (tested: 1 µg/ml (highest concentration)) |
